Like-named read-outs stand apart in the source and are kept apart here.
Assays:
AUC = biological target: the molecule itself; test: AUC
[1] = biological target: T1, TFAM (mature, MTS removed) (Homo sapiens, UniProt Q00059 50-246); test: fluorescence anisotropy
T1 sequence: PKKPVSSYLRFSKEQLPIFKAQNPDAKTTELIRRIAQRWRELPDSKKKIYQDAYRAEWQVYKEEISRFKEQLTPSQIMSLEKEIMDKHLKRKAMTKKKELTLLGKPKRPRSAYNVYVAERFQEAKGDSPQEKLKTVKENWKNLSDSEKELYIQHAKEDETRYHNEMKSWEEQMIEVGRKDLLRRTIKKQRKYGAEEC

[2] = biological target: T1, TFAM (mature, MTS removed); test: fluorescence anisotropy; remark: listed apart in the source

B1: Human mitochondrial transcription factor A (TFAM), residues 50-246 (natural protein, UniProt Q00059-1 50-246, looked up)
chain: T1 sequence
stoichiometry N (AUC): 2

B2: Bulged-DNA-S (dsDNA)
DNA 1: CGATATTAAGAGCC
DNA 2: GGCTCAATATCG
apparent K (half saturation) [1]: 164 ± 17 nM

B3: Normal-DNA-S (dsDNA)
DNA 1: CGATATTGAGCC
DNA 2: GGCTCAATATCG
apparent K (half saturation) [2]: 413 ± 59 nM

Source: paper PMC2777442 (Nucleic Acids Research, 2009)
